Measurements from article PMC3916536.

Key:
[1] = target: HLA-A2/D76N β2m/NY-ESO-1(Y1V9) complex; experiment: native MS; nano-ESI-MS, 10 μM protein, 100 mM ammonium acetate, pH 7, declustering potential 50 V, complexes with peptide I
[2] = target: HLA-A2/WT β2m/NY-ESO-1(Y1V9) complex; experiment: as above

| stoichiometry N [1] | stoichiometry N [2] | Substance |
| --- | --- | --- |
| 2 |  | HLA-A2/D76N β2m/NY-ESO-1(Y1V9) complex (from UniProt P61769 21-119) (peptide-MHC) |
|  | 2 | HLA-A2/WT β2m/NY-ESO-1(Y1V9) complex (from UniProt P61769 21-119) (peptide-MHC) |
